Data reported in US20060216231, “Methods for diagnosing and treating tumors and suppressing cd promoters” (published 2006).

Legend:
hnRNP-K (GST fusion) [1] = target: T1, hnRNP-K (GST fusion) (Homo sapiens, UniProt P61978 SEQ:1-463); assay: competition; 100-fold excess fails to compete n1 binding; details: tags: N-terminal GST fusion, expressed in E. coli XL-2 (construct from D. Levens)
Description: (§1) Binding reactions containing GST/hnRNP-K were performed in the absence (GST-K) or presence (+) of a 100 fold molar excess of unlabeled CD43 PyRo SS, the presence of Mut-11 (Mut) representing a mutant version of CD43 PyRo SS which fails to support PyRol binding Farokhzad et al., (2000) Nucleic Acids Research, 28:2256-2267) or the presence of an unrelated oligonucleotide (NS). The free probe and probe bound by the GST/hnRNP-K protein (GST:hnRNP-K) are arrowed.

hnRNP-K (GST fusion) [2] = target: T1, hnRNP-K (GST fusion); assay: EMSA; 70 mM KCl, 5 mM NaCl, 20 mM Tris pH 7.5, poly(dI-dC), 4 C; competed by 100-fold unlabeled self; details: tags: N-terminal GST fusion, expressed in E. coli XL-2 (construct from D. Levens); label: 32P 5'
Description: as §1

hnRNP-K (GST fusion) [3] = target: T1, hnRNP-K (GST fusion); assay: competition; unrelated competitor oligonucleotide; outcome not explicitly described in text; details: tags: N-terminal GST fusion, expressed in E. coli XL-2 (construct from D. Levens)
Description: as §1

Binder: GGGCCCACTTCCTTCATATATG (ssDNA) [CD43 Mut-11]
- binding result (hnRNP-K (GST fusion) [1]): no binding

Binder: GGGCCCACTTCCTTTCCCCTTG (ssDNA) [CD43 PyRo SS]
- binding result (hnRNP-K (GST fusion) [2]): binds

Binder: GAGTTAGCTCACTCATTAGG (ssDNA) [NS-SS]
- binding result (hnRNP-K (GST fusion) [3]): no binding
